The nanobody polyreactivity screen of Harvey et al. (2022)

Experiment: yeast display, Sf9 membrane polyspecificity reagent, FACS + sequencing; frameworks hold sequencing errors
How it was run: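 In a synthetic yeast display library (Saccharomyces cerevisiae BJ5465), nanobody expression was induced with galactose for 36–48 hours. FACS gates were set low and high (top ~1%) using anti-HA fluorescence for expression and streptavidin fluorescence for binding of the Sf9 membrane reagent. Each polyreactivity label is drawn from the gate of origin.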

QVQLVESGGGLVQAGGSLRLSCAASGRIFTYYAMGWYRQAPGKERELVASITGSGGSTDYADSVKGRFTISRDNAKNTVYLQMNSLKPEDTAVYYCAADHSGVSRYDYWGQGTQVTVSS
polyreactivity (PSR sort gate): low polyreactivity

QVQLVESGGGLVQAGGRLRLSCAASGRTFSPYAMGWYREAPGKEREFVAASTWSAGRTYYADSVKGRFTISRDNAKNTVYLQMNSLKPEDTAVYYCNARDRSITYPRYDYWGQGTQVTVSS
polyreactivity (PSR sort gate): high polyreactivity

QVQLVESGGGLVQAGGSLRLSCAASGNTFGHYTMGWYRQAPGKERELVAAISWDDSSTNYADSVKGRFTISRDNAKNTVYLQMNILKPEDTAVYYCAKETELRTQYPYVYDYWGQGSQVTVSS
polyreactivity (PSR sort gate): low polyreactivity

QVQLVESVGGLVQAGGRLRLSCAASGSTFPRYTRGWYRQAPGKERELVAAISSRGGSTIYADSVKGRFTNSRDNAMNTVYLEMNSLKPEDSAVYYCAARRASRDGYWGQGTQVTVSS
polyreactivity (PSR sort gate): high polyreactivity

QDQLVESAVGLVQAGGSLRLSCDASGSTFDFYDIGWYRQAPGKERELVATIRWSGDTTYYADSVKGRFTISRDNAKNTVYLQMTRLKPEDTAVYYCNADYFGQESWWMDYWGQGTQVTVSS
polyreactivity (PSR sort gate): low polyreactivity

QVQLVESGGGLVQAGGSLRLSCAASGSTFVGNAMGWYRQAPGKERELVAAITSGGSTNYADSVKGRFTISRDNAKNTVYLQMNSLKPEDTAVYYCAKRVSGSPPTAGSLSDSWGQGTQVTVSS
polyreactivity (PSR sort gate): high polyreactivity

QVQLVESGGGLVQAGGSLRLSCAASGRTFGTYAMGWYRQAPGKDRELVAAISRRGGTTYYADSVKGRFTISRDNAKNTVYLQMNSLKPEDTAVYYCARASWSITTVLSTMDYWGQGTQVTVSS
polyreactivity (PSR sort gate): high polyreactivity

QVQLVESGGGLVQAGGSLRISCAASGRIFWTYAMGSYRQAPGKERELVAAITWRGGSTSYADSVKGRFTISRDNAKNTVYLQMNSLKPEDTAVYYCAADTYSYLRGTYEYDYWGQGTQVTVSS
polyreactivity (PSR sort gate): high polyreactivity

QVQLVESVGGLVQAGGSLRLSCAASGITFDKYAMGWYRQATVKERELVAAISGSDGSTYYADSVKGRFTISRDNAKNNVYLQMNSLKPEDTAVYYCAAESEYAGTYEYDYWGQGTQVTVSS
polyreactivity (PSR sort gate): low polyreactivity

QVQLVESGGGLVQAGGSLRLICAASGSTFAYNDMGWYRQAPGTERELVADIRSGGNTNYADSVKGRFTISRDNAKNTVYLQMNSLKPEDTAVYYCATDGYRIDVYHPDYRYDYWGQGTQVTVSS
polyreactivity (PSR sort gate): low polyreactivity

QVQLVESGGGLVQAGGSLRLSCAASGSIYVPNDMGWYRQAPGKEREFVAAITESDGSTYYADSVKGRFTISRDNAKNTVYLQMNSLKPEDTAVYYCATDSTGVTIVHFDYWGQGTQVTVSS
polyreactivity (PSR sort gate): low polyreactivity

QVQLVESGGGLVQAGGSLRLSCAASGSTFGEYAMGWYRQAPGKERELVASITFSAGSTDYADSVKGRFTISRDNAKNTVYLQMNSLKPEDTAVYYCAADGWWPWEYDYWGQGTQVTVSS
polyreactivity (PSR sort gate): low polyreactivity

QVQLVESGGGLVQAGGSLRLTCAASGNIFFVYDMGWYRQAPGKERELVAAISWSGGSTYADSVKGRFTISRDNAKNTVYLQMNSVKPEDTAVDYCAADVAYVEYDYWGQGTQVTVSS
polyreactivity (PSR sort gate): low polyreactivity

QVQLVESGGGLVQAGGTLRISCAASGRIYAGYVMGWYRQAPRKERELVAAISGSGAYTYYADSVKGRFTISRDYAKNTVYLQMNRLKPEDSAVYYCAADKPGIFSRFDYWGQGTQVSVSS
polyreactivity (PSR sort gate): low polyreactivity

QVQLVESGGGLVQAGGSLRLSCAASGIIFRSNAMGWYRQAPVKETELVAAITGRGTRTYFADSVKGRFTISRDYAKYRVYFQMNSLKPEDTAVYYCNKGQTRGMGYWGQGTQVTVSS
polyreactivity (PSR sort gate): high polyreactivity

QVQLVESGGGLVQAGGSLRLSCAASGITFYHYAMGWYRQAPGKERELVAAISVSGGRTYYADSVKGRFTISRDNAKITVYLQMNSLKPEDTAVYYCAKVSQVRGFYYWGQGTQVTVSS
polyreactivity (PSR sort gate): high polyreactivity

QVQLVESGGGLVQAGGSLRLSCAASGLILSSNAMGWYRQAPGKERELVATINRSGASTYYADSVKGRFTISRDNAKNTVYLQMNSLKPEDTAVYYCNTATSRAYRYDYWGQGSQVTVSS
polyreactivity (PSR sort gate): low polyreactivity

QVQLVESGGGLVQAGGSLRLSCAASGITFNYYAMGWYRQAPGKERELVAAITDDGNTNYADSVKGRFTISRDNAKNTVYLQMNSLKPEDTAVYYCAADLLGIPDYEYWGQGTQVTVSS
polyreactivity (PSR sort gate): low polyreactivity

QVQLVESGGGLVQAGGSLRLSCAASGSIFYKNVMGWYRQAPGKEREFVAAISSSGGSTYYADSVKGRFTISRDNAKNTVYLQMNSLKPEDTAVYYCAATGWGLFRRRYDYWGQGTQVTVSS
polyreactivity (PSR sort gate): low polyreactivity

QVQLVESGGGLVQAGGSLRLSCATSGGTLVANAMGWSSQPPGKESEFVAVITLTAGSTSYADSVKGRLTISRDNAKNTVYLQMNSLKPEDTAVYYCNVDVYNVYNSYPYYYWGQGTQVTVSS
polyreactivity (PSR sort gate): low polyreactivity

QVQLVESGGGLVQAGGSLRLSCAASGFSYRYYAMGWYRQAPGKERELVAAISSRGGSTYYADSVKGRFTISRDNATNTVYLQMNSLKPEDTAVYYCAADHGDPGGYDYWGQGTQVTVSS
polyreactivity (PSR sort gate): high polyreactivity

QVQLVESGGGLVQAGGSLRLSCAASGRTFWYNAMGWYRQAPGKERELVAVISSGAITYYADSVKGRFTISRDNAKNTVYLQMNSLKPEDTAVYYCAARSYLSLIDYWGQGTQVTVSS
polyreactivity (PSR sort gate): high polyreactivity

QVQLVESGGGLVQAGGSLRLSCAASGSIFPLYAMGWYRQAPGKERELVAGINGNDGSTYYADSVKGRFTISRDYEKNTVYLQRNRLKPEDTAVYYCAARGSTAHPHYPFNYWGQGTQVTVSS
polyreactivity (PSR sort gate): low polyreactivity

QVQLVESGGGLVQAGGSLRLSCAASGSTLDRNTMGWYRQAPGKERELVAAITWSGGRTYYADSVKGRFTITRDNAKNTVYLQMNSLKPEDTAVYYCNKDYWKRPVDEYDYWGQGTQVTVSS
polyreactivity (PSR sort gate): high polyreactivity

QDQLVESGGGLVQAGGSLRLSCAASGFIFDQYAMGWYRQPPGKERELVAAITSGGDTNYADSVKGRFTISRDNAKNTVYLQMNSLKPEDTAVYYCNAAARGSSFDYWGQGTQVTVSS
polyreactivity (PSR sort gate): low polyreactivity

QVQLVDSWGGLVQAGGSLRLSCAASGSIFTLYDMGWYRQAPGKERELVAAIDWSGGSTRYADSVKGRFTISRDNAKNTVYLQMNSLKPEDTAVYYCAKDLGGRYGRYRYDYWGQGTQVTVSS
polyreactivity (PSR sort gate): high polyreactivity

QVQLVESGGALVQAGGSLRLSCAASGFIFFQYAMGWYRQAPGKERELVAAISGSGVTTYYADSVKGRFTISRDNAKNTVYLQMNSLKPEDTAVYYCNAALRWKYDWGQGTQVTVSS
polyreactivity (PSR sort gate): low polyreactivity

QVQLVESGGGLVQAGGSLRLSCAASGSTFYYNAMGWYRQAPGKEREFVAAISSRGGSTYYADSVKGRFTISRDNAKTTVYLQMNSLKPEDTAVYYCAAKYRHRYDWGQGTQVTVSS
polyreactivity (PSR sort gate): high polyreactivity

QVQLVESGGGLDQAGGSLRLSCAASGFIFAYNTMGWYRQAPGKERELVATIRWSGGRTYYADSVKGRFTISRDNAKNSVYLQMNSLKPEDTAVYYCAKRAFSYVGGQQDRKENYYYWGQGTQVTVSS
polyreactivity (PSR sort gate): high polyreactivity

QVQLVESGGGLVQAGGSLRLICAASGSTFTRYAMGWYRQAPGKERELVAAITSSGSRTYYADSVKGRFTISRDNAQNTVYLQMNSLKPEDTAVYYFAALGDTRYVGMDHWGQGTQVTVSS
polyreactivity (PSR sort gate): high polyreactivity

QVQLVESGGGLVQAGGSLRLSCAASGITFAVKAMGWSRQAPGKERELVAAISRSAGSTYYADSVKGRFTISRDNAKNTVYLQMNSLKPEDTAVYYCATALRYARSRNRFYYWGQGTQVTVST
polyreactivity (PSR sort gate): high polyreactivity

QVQLVESGGGLVQAGGSLRLSCAASGFTFQNNVMGWYRQAPGKERELVAAINSSGRTYYADSVKGRFTISRDNAKNTVYLQMNSLKPEDTAVFYCAASRRYRGVNRPGDYWGQGTQVTVSS
polyreactivity (PSR sort gate): high polyreactivity

QVQLVESGGGLDQAGGSLRLSCAASGYILPKNTMGWYRQAPGKERELVAAISWSGGSTFYADSVKGRFTISRDNAKNTVYLQMNSLKPEETAVYYCAADRSWSWYYRYDYWGQGTQVTVSS
polyreactivity (PSR sort gate): low polyreactivity

QVQLVESGGGLVQAGGSLRLALLTPDLPSTINDMGWYRQAPGKERELVAAITRGGSTNYADSVKGRFTISRDNAKNTVYLQMNSLKPEDTAVYYCAAPSAGWRDGGDYWGHGTQVTVSS
polyreactivity (PSR sort gate): low polyreactivity

QVQLVESGGGLVQAGGSLRLSCAASGFTFHVYAMGWSRQAPGKERELVAAISTGDDTTFYADSVKGRLTISRDNAKNTVYLQMNSLKPEDTAVYYCAAAYGTPYGGYDYWGQGTQVTVSS
polyreactivity (PSR sort gate): low polyreactivity

QVQLVESGGGLVQAGGSLRLSCAASGSTFEYNVMGWYRQAPGKERELVASITSDGNTNYSDSVKGRFTISRDNAKNTVYLQMNSLKPEDTAVYYCNFYTWHWTFGMDYWGQGTQVTVSS
polyreactivity (PSR sort gate): low polyreactivity

QVQLVESGGGLVQAGGSLRLSCAASGSIFISYAMGWYRQAPGKESELVDAINYSGGSTYYADSVKGRFTISRDNAKNTVYLQMNSLKPEDTAVYYCAKRSTYRYYGYKLRDYWGQGTQVTVSS
polyreactivity (PSR sort gate): low polyreactivity

QVQLVESGGGLVQAGGSLSLSCAASGSTFSRYGMGGYRQAPGKERELVAAISYSGGGTYYADSVKGRFTISRDNAKNTVYLQMNSQKREDNAVYYCNVEYPKRANLSDYWGQGTQVTVSS
polyreactivity (PSR sort gate): high polyreactivity

QDQLVESWGGLVQAGGSLRLSCAASGFTFNKYAMGWYRQAPGKERELVAAISSSGGRTSYADSVKGRFTISRDNAKNTVYLQMNSLKPEDTAVYYCNKVSTADMGYWGHGTQVTVSS
polyreactivity (PSR sort gate): high polyreactivity

QVQLVESGGGLVQAGGSLRLSCAASGRTFYGNAMGWYRQAPGKERELVAAITTGGGNTYYADSVKGRFTISRDNAKNTVYLQMNSLKPEDTAVYYCAKCYRAYYWGFNYWGQGTQVTVSS
polyreactivity (PSR sort gate): high polyreactivity

QVQLVESGGGLVQAGGSLRLSCAASGRTFKGYAMGWYSQAPGKDRELVAAISYRGGSTYYADSVKGRFTISRDNAKNTGYLQMNILKPEDTAFYYCAARWNRGRYDYWGQGTQVTVSS
polyreactivity (PSR sort gate): high polyreactivity

QVQLVESGGGLVQAGGSLRLSCAASGNIFTGNDMGWYRQAPGKERELVAAISKRGGSTFYADSVKGRFTISRDNAKNTVYLQMNSLKPEDTEGYYCNALRRGVRDPYGYWGQGTQVTVSS
polyreactivity (PSR sort gate): high polyreactivity

QVQLVESGGGLVQAGGSLRLSCAASGSTFAVYTMGWYRQAPGKERELVAAISSSGGSTYLRRSVKGRFTISRDNAKNTVYLQMNSLKPEDTAVYYCAAQWYAGHWHVPYEYWGQGTQVTVSS
polyreactivity (PSR sort gate): high polyreactivity
